The source of these data is PMC3970758, “A conserved MCM single-stranded DNA binding element is essential for replication initiation”.

Data set [1] deals with T1, PfMCMN R124A/R186A (Pyrococcus furiosus, UniProt Q8U3I4 1-256, R124A;R186A).
T1 sequence: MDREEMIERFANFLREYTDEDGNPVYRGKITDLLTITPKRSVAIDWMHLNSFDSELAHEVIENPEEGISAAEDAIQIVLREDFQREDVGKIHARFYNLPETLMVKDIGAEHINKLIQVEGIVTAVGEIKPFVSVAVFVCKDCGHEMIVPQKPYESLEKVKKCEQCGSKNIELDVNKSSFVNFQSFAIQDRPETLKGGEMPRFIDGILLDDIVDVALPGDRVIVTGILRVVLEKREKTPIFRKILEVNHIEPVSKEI
The experiment in a line: EMSA; 5 mM Mg2+; protein 10-40 uM; EMSA: 20 mM HEPES pH 7.6, 200 mM NaCl, 5 mM MgCl2, 5 mM bME, 25 C, 30 min, 160 nM DNA; 4-20% TBE PAGE. The conditions noted are these: protein: recombinant; tags: His6-SUMO removed by Ulp1; label: 5'-fluorescein on strand 1; blunt.

Data set [2] concerns the target T2, PfMCMN K129A (Pyrococcus furiosus, UniProt Q8U3I4 1-256, K129A).
T2 sequence: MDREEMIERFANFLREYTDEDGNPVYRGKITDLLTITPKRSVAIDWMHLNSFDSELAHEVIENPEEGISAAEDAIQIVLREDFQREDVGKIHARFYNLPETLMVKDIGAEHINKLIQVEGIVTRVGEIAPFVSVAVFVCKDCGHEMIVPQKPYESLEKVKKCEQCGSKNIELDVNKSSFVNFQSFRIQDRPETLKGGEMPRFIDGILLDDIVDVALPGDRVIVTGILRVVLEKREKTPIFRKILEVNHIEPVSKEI
The experiment in a line: EMSA; 5 mM Mg2+; EMSA: 20 mM HEPES pH 7.6, 200 mM NaCl, 5 mM MgCl2, 5 mM bME, 25 C, 30 min, 160 nM DNA; 4-20% TBE PAGE. As to conditions: protein: recombinant; tags: His6-SUMO removed by Ulp1; label: 5'-fluorescein on strand 1; blunt.

The target of data set [3] is T3, PfMCMN R186A (Pyrococcus furiosus, UniProt Q8U3I4 1-256, R186A).
T3 sequence: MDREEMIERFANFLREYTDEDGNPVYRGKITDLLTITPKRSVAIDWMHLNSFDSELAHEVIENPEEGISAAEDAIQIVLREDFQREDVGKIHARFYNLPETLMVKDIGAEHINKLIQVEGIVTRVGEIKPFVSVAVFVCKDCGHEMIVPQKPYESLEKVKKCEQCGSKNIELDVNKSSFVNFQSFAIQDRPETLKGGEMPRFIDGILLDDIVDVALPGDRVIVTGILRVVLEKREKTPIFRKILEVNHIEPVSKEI
The description is as above. As to conditions: protein: recombinant; tags: His6-SUMO removed by Ulp1; label: 5'-fluorescein on strand 1; blunt.

In data set [4] the target is T4, PfMCMN R124A (Pyrococcus furiosus, UniProt Q8U3I4 1-256, R124A).
T4 sequence: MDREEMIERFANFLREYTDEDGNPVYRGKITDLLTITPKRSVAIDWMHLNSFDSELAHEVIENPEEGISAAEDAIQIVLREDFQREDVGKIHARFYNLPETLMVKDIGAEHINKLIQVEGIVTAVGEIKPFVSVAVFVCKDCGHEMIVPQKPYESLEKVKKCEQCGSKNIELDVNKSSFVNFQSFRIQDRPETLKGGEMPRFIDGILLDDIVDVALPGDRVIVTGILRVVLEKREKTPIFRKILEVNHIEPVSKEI
The description is as above. The conditions noted are these: protein: recombinant; tags: His6-SUMO removed by Ulp1; label: 5'-fluorescein on strand 1; blunt.

Data set [5] has as its target T1, PfMCMN R124A/R186A. Nature of the data set: EMSA; 5 mM Mg2+; protein 54-270 uM; EMSA: 20 mM HEPES pH 7.6, 200 mM NaCl, 5 mM MgCl2, 5 mM bME, 25 C, 30 min, 160 nM DNA; 4-20% TBE PAGE. As to conditions: protein: recombinant; tags: His6-SUMO removed by Ulp1; label: 5'-fluorescein.
In a further data set the target is T5, PfMCMN K233A (Pyrococcus furiosus, UniProt Q8U3I4 1-256, K233A).
T5 sequence: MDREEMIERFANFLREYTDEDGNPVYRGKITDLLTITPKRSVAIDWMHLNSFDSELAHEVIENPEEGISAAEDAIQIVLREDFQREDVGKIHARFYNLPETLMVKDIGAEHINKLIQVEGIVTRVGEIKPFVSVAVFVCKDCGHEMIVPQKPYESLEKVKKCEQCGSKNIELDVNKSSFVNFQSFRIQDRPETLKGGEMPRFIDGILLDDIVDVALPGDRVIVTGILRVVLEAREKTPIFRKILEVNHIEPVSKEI
Nature of the data set: EMSA; 5 mM Mg2+; EMSA: 20 mM HEPES pH 7.6, 200 mM NaCl, 5 mM MgCl2, 5 mM bME, 25 C, 30 min, 160 nM DNA; 4-20% TBE PAGE. The conditions noted are these: protein: recombinant; tags: His6-SUMO removed by Ulp1; label: 5'-fluorescein.

In another data set the target is T6, PfMCMN F202A (Pyrococcus furiosus, UniProt Q8U3I4 1-256, F202A).
T6 sequence: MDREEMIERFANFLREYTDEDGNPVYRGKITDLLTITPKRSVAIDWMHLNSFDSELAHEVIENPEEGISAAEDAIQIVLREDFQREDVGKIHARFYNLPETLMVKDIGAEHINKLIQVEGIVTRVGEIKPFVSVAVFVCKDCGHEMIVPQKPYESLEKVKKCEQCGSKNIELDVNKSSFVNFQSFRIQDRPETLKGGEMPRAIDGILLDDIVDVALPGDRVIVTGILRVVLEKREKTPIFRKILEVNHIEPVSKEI
The data set is described as above. As to conditions: protein: recombinant; tags: His6-SUMO removed by Ulp1; label: 5'-fluorescein.

Data set [6] concerns the target T2, PfMCMN K129A. The description is as above. As to conditions: protein: recombinant; tags: His6-SUMO removed by Ulp1; label: 5'-fluorescein.
For data set [7], the target named is T3, PfMCMN R186A. The data set is described as above. As to conditions: protein: recombinant; tags: His6-SUMO removed by Ulp1; label: 5'-fluorescein.
The target in data set [8] is T4, PfMCMN R124A. Described as above. The conditions noted are these: protein: recombinant; tags: His6-SUMO removed by Ulp1; label: 5'-fluorescein.

B1: 26-mer dsDNA (dsDNA)
DNA 1: ATGGCAGATCTCAATTGGATATCGGC
DNA 2: GCCGATATCCAATTGAGATCTGCCAT
Regarding B1, in the data set with PfMCMN R124A/R186A [1], the binding signal is 3 fold reduction vs WT. The binding result with PfMCMN K129A [2], in the data set with PfMCMN R186A [3] and with PfMCMN R124A [4] was “binds” throughout.

Consider TTTTTTTTTTTTTTTTTTTTTTTTTTTTTTTTTTTTTTTT (ssDNA) [T40 ssDNA], for which the binding signal with PfMCMN R124A/R186A [5] amounted to 25 fold reduction vs WT; in the data set with PfMCMN K129A [6], 4 fold reduction vs WT; in the data set with PfMCMN R186A [7], 6 fold reduction vs WT; with PfMCMN R124A [8], 7 fold reduction vs WT. The binding result in the data set with PfMCMN K233A and with PfMCMN F202A was “binds” each time.
